Laboratory results reported in patent US11248246B2, “Beta-glucosidase for producing glucose and laminarioligosaccharide from sea weed” (Korea University Research and Business Foundation, priority 2018, dated 2022).

Tests used:
[1] = Optimum pH of Bgl1B protein (relative activity at pH 4.0-9.0); type: biochemical
From the text: FIG. 2 illustrates the relative activity of Bgl1B at a pH ranging from 4.0 to 9.0. […] The activity was reduced to 30% or less at a pH of 4 and at a pH of 8 or higher.

[2] = Optimum temperature of Bgl1B (relative activity at 2° C. to 60° C.); type: biochemical
Procedure: FIG. 3 illustrates the relative activity of Bgl1B at a temperature ranging from 2° C. to 60° C. […] An enzymatic activity of approximately 83% was maintained at 20° C. […] In addition, the enzyme can be inactivated with only simple heat treatment.

[3] = Thermal stability of Bgl1B; type: physicochemical
From the text: FIG. 4 illustrates the stability with respect to temperature of the enzyme.

[4] = Substrate specificity of Bgl1B on disaccharides (TLC); type: biochemical; settings: 0.2% (w/v) substrate, 20 mM sodium phosphate buffer (pH 6), 0.6 U of Bgl1B, 1 hour
Procedure: To confirm the substrate specificity of the Bgl1B protein, each of 0.2% (w/v) of a plurality of disaccharides in a 20 mM sodium phosphate buffer (pH 6) was allowed to react with 0.6 U of Bgl1B for 1 hour.

[5] = Enzymatic reaction rate (Lineweaver-Burk), laminaribiose; type: biochemical
Procedure: To confirm the enzymatic reaction rate of the Bgl1B protein for various substrates, the Bgl1B protein was allowed to react with each substrate at various concentrations of 0.1-0.4% (w/v) at pH 6 and 40° C. Vmax, Km, and kcat, which are parameters related to an enzymatic reaction rate, were determined from the Lineweaver-Burk plot.

[6] = Hydrolysis of laminarin to glucose (HPLC); type: biochemical; settings: 3 U of Bgl1B, 0.2% (w/v) of laminarin, 40° C., 24 hours
Procedure: (§1) Characteristics of the enzymatic reaction of the Bgl1B protein using, as a substrate, laminarin, which is a polysaccharide, were analyzed using high performance liquid chromatography (HPLC) and thin layer chromatography (TLC). HPLC analysis was performed using Agilent 1100 HPLC equipped with a gel permeation and ligand exchange column (KS-802; Shodex) and a refractive index detector, and analysis conditions were a flow rate of 0.5 mL/min, a column temperature of 80° C., and sterile water as a mobile phase. For TLC analysis, 1 μl of a reaction product was loaded onto silica gel 60 plates (Merck), and then developed using a mixed solvent of n-butanol:acetic acid:water (volume ratio of 3:2:2), and treated with 10% (v/v) of sulfuric acid for visualization.

[7] = Transglycosylase activity against laminarin (HPLC, TLC); type: biochemical; settings: 0.03 U of Bgl1B, 0.2% (w/v) of laminarin, after 24 hours
Procedure: as §1

[8] = Transglycosylase activity against laminaribiose (HPLC, TLC, FIG. 8); type: biochemical; settings: 0.002 U of Bgl1B, 0.3% (w/v) of laminarin (so in the source)
Procedure: as §1

B1: Bgl1B: β-glucosidase having the amino acid sequences of SEQ ID NO: 1, from Saccharophagus degradans 2-40^T, with exo-type glucanase and transglycosylase activities (protein)
chain: MNRLTLPPSSRLRSKEFTFGVATSSYQIEGGIDSRLPCNWDTFCEQPNTIIDNTNGAIACDHINRWQDDIELIANLGVDAYRFSIAWGRVINLDGSLNNEGVTFYKNILTKLREKNLKAYITLYHWDLPQHLEDAGGWLNRDTAYKFRDYVNLITQALDDDVFCYTTLNEPFCSAYLGYEIGVHAPGIKDLASGRKAAHHLLLAHGLAMQVLRKNCPNSLSGIVLNMSPCYAGSNAQADIDAAKRADDLLFQWYAQPLLTGCYPDAINSLPDNAKPPICEGDMALISQPLDYLGLNYYTRAVFFADGNGGFTEQVPEGVELTDMGWEVYPQGLTDLLIDLNQRYTLPPLLITENGAAMVDELVNGEVNDIARINYFQTHLQAVHNAIEQGVDVRGYFAWSLMDNFEWALGYSKRFGITYVDYQTQKRTLKASGHAFAEFVSSRS
modifications: Saccharophagus degradans 2-40T
pH of highest activity ([1]; 0.1% (w/v) cellobiose, 40° C., 15 minutes, pH 4.0-9.0): 6
enzymatic activity at about pH 5 to about pH 7.5 ([1]; about pH 5 to about pH 7.5): ≥ 80%
relative activity at a pH of 4 ([1]; pH 4, 0.1% (w/v) cellobiose, 40° C., 15 minutes): ≤ 30%
relative activity at a pH of 8 or higher ([1]; pH 8 or higher, 0.1% (w/v) cellobiose, 40° C., 15 minutes): ≤ 30%
enzymatic activity at 50° C. or higher ([2]; 50° C. or higher): sharply reduced
enzymatic activity at 2-10° C. ([2]; pH 6, 2-10° C.): ≥ 58%
enzymatic activity at pH 6 and 10° C. to 40° C. ([2]; pH 6, 10° C. to 40° C.): ≥ 80%
enzymatic activity maintained at 20° C. ([2]; pH 6, 20° C.): approximately 83%
temperature of highest enzymatic activity ([2]; pH 6, range 2° C. to 60° C.): 40 °C
enzymatic activity maintained after heat ([3]; after reaction at 40° C. for 1 hour): 80%
enzymatic activity after heat ([3]; after reaction at 50° C. or higher for 1 hour): almost no activity
hydrolysis of agarotriose [4]: unable to hydrolyze agarotriose
hydrolysis of disaccharides with an α-linkage [4]: unable to hydrolyze any disaccharide with an α-linkage
hydrolysis of disaccharides with β-linkages [4]: able to hydrolyze all disaccharides with β-linkages
substrate specificity in a collective view of the parameters ([5]; Table 2 substrates compared): highest substrate specificity for laminaribiose
lower Km compared to Novozyme 188 ([5]; laminaribiose, compared to the commercialized enzyme Novozyme 188): 2.5 fold
production yield of glucose from laminarin [6]: 75%
products of laminarin degradation (HPLC) [6]: only glucose is produced without the production of oligosaccharides
products at very low enzyme concentration (transglycosylase activity) [7]: oligosaccharides with low degrees of polymerization such as DP2, DP3, and DP4 were produced
product of transglycosylase activity (FIGS. 8A and 8B) [8]: production of DP3 was confirmed
